In IntAct's records for PubMed 18192679:

B1: Huntingtin-associated protein 1 (Homo sapiens), P54257-2 (parent)
chain: MRPKRLGRCCAGSRLGPGDPAALTCAPSPSASPAPEPSAQPQARGTGQRVGSRATSGSQFLSEARTGARPASEAGAKAGARRPSAFSAIQGDVRSMPDNSDAPWTRFVFQGPFGSRATGRGTGKAAGIWKTPAAYVGRRPGVSGPERAAFIRELEEALCPNLPPPVKKITQEDVKVMLYLLEELLPPVWESVTYGMVLQRERDLNTAARIGQSLVKQNSVLMEENSKLEALLGSAKEEILYLRHQVNLRDELLQLYSDSDEEDEDEEEEEEEKEAEEEQEEEEAEEDLQCAHPCDAPKLISQEALLHQHHCPQLEALQEKLRLLEEENHQLREEASQLDTLEDEEQMLILECVEQFSEASQQMAELSEVLVLRLENYERQQQEVARLQAQVLKLQQRCRMYGAETEKLQKQLASEKEIQMQLQEEETLPGFQETLAEELRTSLRRMISDPVYFMERNYEMPRGDTSSLRYDFRYSEDREQVRGFEAEEGLMLAADIMRGEDFTPAEEFVPQEELGAAKKVPAEEGVMEEAELVSEETEGWEEVELELDEATRMNVVTSALEASGLGPSHLDMNYVLQQLANWQDAHYRRQLRWKMLQKGECPHGALPAASRTSCRSSCR

Variants of: B1
Details: with hd_human HTT

Row | Variant | effect of a mutation on the interaction
1 | T441M | increasing interaction
